From article PMC6277972 come the findings set out here.

The target in the test is P74-26 gp87 (Head Decoration Protein gp87 from Thermus phage P74-26) (Thermus bacteriophage P74-26). Nature of the test: SEC-MALS.

The term stoichiometry N denotes a count of units in the complex or per binding partner. “P74-26 gp87 (Head Decoration Protein gp87 from Thermus phage P74-26) (natural protein)” registered a stoichiometry N of 3.
